{"source": "patent US20030096288A1", "about": "(Human Genome Sciences, published 2003)", "binders": {"B1": {"name": "GST-Fas fusion protein (receptor, UniProt P25445 191-335, looked up)", "chain": "KRKEVQKTCRKHRKENQGSHESPTLNPETVAINLSDVDLSKYITTIAGVMTLSQVKGFVRKNGVNEAKIDEIKNDNVQDTAEQKVQLLRNWHQLHGKKEAYDTLIKDLKKANLCTLAEKIQTIILKDITSDSENSNFRNEIQSLV", "notes": "not shown: GST"}}, "target": "T1, RAIDD (construct or tag not stated for the experiment) (human, UniProt P78560 1-199)", "T1 construct": "a tag may have been present; also called RAIDD expression construct", "T1 sequence (P78560 whole entry, the tested form may be a part)": "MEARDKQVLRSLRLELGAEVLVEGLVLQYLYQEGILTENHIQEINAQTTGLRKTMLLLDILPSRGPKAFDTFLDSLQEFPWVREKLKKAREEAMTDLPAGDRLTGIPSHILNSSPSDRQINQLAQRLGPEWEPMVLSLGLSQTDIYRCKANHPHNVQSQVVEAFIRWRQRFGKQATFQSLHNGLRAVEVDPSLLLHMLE", "test": "in vitro binding to GST fusion protein on glutathione beads", "experimental": "In Vitro Binding Assay. […] The tagged proteins were expressed, purified, and immobilized into Ni²⁺ beads according to standard methodology. The GST-Fas and TNFR-1 fusion proteins were prepared as described previously (Chinnaiyan, A. M. et al., Cell 81:505-12 (1995)). ³⁵S-labeled proteins were obtained by in vitro transcription/translation using the TNT T7-coupled reticulocyte lysate system (Promega).\nBeads were washed, boiled in SDS sample buffer, eluted proteins resolved by SDS-PAGE and visualized following autoradiography."}
{"binder": "B1", "values": [{"measurement": "binding result", "result": "no binding"}]}
